These results are taken from patent publication US11484554B2, “Pancreatic cells for treating diabetes and methods of generating the same” (Seraxis, Inc., priority 2018, dated 2022).

Type in all cases: cell-based, human
The subject of assay [1] is SR1423 cells. In words: Glucagon added to the culture media during differentiation. The procedure:
A second batch of SR1423 cells were seeded at 6.3×10^4 as described above and allowed to grow for 18-24 hours. […]

Assay [2] relates to SR1423 cells. Description: Impact of KGF at earlier stages of differentiation, SR1423. The following applies: KGF at earlier stages of differentiation (early endoderm). Here is the method: Differentiation: A first batch of SR1423 cells were seeded at 2.3×10^4 cells/cm^2 and allowed to grow for 18-24 hours. Cells were then washed with dPBS (—Mg^2+/—Ca^2+) and medium was changed following a 28 day schedule comprised of 6 media formulation as follows: Days 1, 2, 3: DMEM/F-12 medium (Life Technologies #10565018), 0.2% HSA, 1XB27 supplement (Life Technologies #A1486701), 100 ng/ml Activin A and 1 uM Wortmannin; Days 4, 5, 6, 7: DMEM (Life Technologies #10567014), 0.2% HSA, 1XB27 supplement, 4 uM Retinoic Acid, 50 ng/ml KGF, 50 ng/ml Noggin, 0.25 uM Cyclopamine KAAD; Days 8, 10: DMEM, 0.2% HSA, 1XB27 supplement, 50 ng/ml KGF, 50 ng/ml Noggin, 50 ng/ml EGF; Days 12, 14: DMEM, 0.2% HSA, 1XB27 supplement, 50 ng/ml Noggin, 50 ng/ml EGF, 1 uM γ-secretase inhibitor XXI, 10 uM Alk5i II, 1 uM T3; Days 16, 18: DMEM, 0.2% HSA, 1XB27 supplement, 10 uM Alk5i II, 1 uM T3, 100 nM Retinoic Acid; Days 20, 22, 24, 26, 28: CMRL (Life Technologies #11530037), 0.2% HSA, 1× B27 supplement, 1× glutamax (Life Technologies # 35050061), 10 uM Alk5i II, 1 uM T3, 10 mM Nicotinamide, 50 ng/ml IGF-I, 10 ng/ml BMP4. For differentiations with the addition of a second stage employing KGF, medium on days 4, 5, 6 with DMEM, 0.2% BSA, 1XB27 supplement, and 50 ng/ml KGF was inserted into the schedule shifting the remaining stages three days later. […]

Assay [3] relates to embryonic stem cell line BGO1V. In words: Impact of KGF at earlier stages of differentiation, BGO1V.

“Also recorded” adds a separate entry of the source.

In the case of “glucagon: peptide hormone added to the sixth differentiation medium”, the “amount of cells that co-express insulin and glucagon” value with SR1423 cells [1] is “reducing the amount of cells that co-express insulin and glucagon; also recorded: reduces the amount of cells that co-express insulin and glucagon”.

B1: KGF: keratinocyte growth factor used as differentiation factor in culture medium (protein, UniProt P21781 32-194, looked up)
Fibroblast growth factor 7: CNDMTPEQMATNVNCSSPERHTRSYDYMEGGDIRVRRLFCRTQWYLRIDKRGKVKGTQEMKNNYNIMEIRTVAVGIVAIKGVESEFYLAMNKEGKLYAKKECNEDCNFKELILENHYNTYASAKWTHNGGEMFVALNQKGIPVRGKKTKKEQKTAHFLPMAIT
With B1, the “production of pancreatic and insulin-producing cells” value with SR1423 cells [2] is “marked reduction”; in assay [3], “matching results”.
